Experimental data as given in the supplement of paper PMC10567573.

B1: DVL3 (parent)
chain: FPELGYSYGGGSASSQHSEGSRSS

Variants of: B1
Test: protein stability index of a GFP-peptide fusion (GPS, HEK-293T) (PSI 1-6); higher = more stable
Details: c terminus: a fixed tail appended
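Also: lentivirally expressed fusions sorted by FACS into six bins by GFP to DsRed ratio, PSI derived from sequencing read proportions per bin multiplied by bin number.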

Variant | protein stability index
FPELTYSYGGGSASSQHSEGSRSS [G5T] | 3.96
FPELIYSYGGGSASSQHSEGSRSS [G5I] | 2.93
FPELVYSYGGGSASSQHSEGSRSS [G5V] | 3.64
FPELGYSYGGGSASSQHSERSRSS [G20R] | 3.15
FPETGYSYGGGSASSQHSEGSRSS [L4T] | 3.77
FPEGGYSYGGGSASSQHSEGSRSS [L4G] | 1.8
FPESGYSYGGGSASSQHSEGSRSS [L4S] | 2.62
FPEVGYSYGGGSASSQHSEGSRSS [L4V] | 3.36
FPEMGYSYGGGSASSQHSEGSRSS [L4M] | 2.09
FPEYGYSYGGGSASSQHSEGSRSS [L4Y] | 2.57
FPELGYEYGGGSASSQHSEGSRSS [S7E] | 3.68
FPELGYQYGGGSASSQHSEGSRSS [S7Q] | 3.22
FPELGYKYGGGSASSQHSEGSRSS [S7K] | 3.21
FPELGYPYGGGSASSQHSEGSRSS [S7P] | 2.7
FPELGYSYGGGSASSQHSEGSYSS [R22Y] | 3.21
FPELGYSYGGGSASSQHSEGSFSS [R22F] | 2.79
FPELGYSYGGGSASSQHSEGSASS [R22A] | 3.41
FPELGYSYGGGSASSQHSEGSISS [R22I] | 3.43
FPELGYSYGGGSASSQHSEGSQSS [R22Q] | 2.92
FPELGYSYGGGSASSQHSEGSHSS [R22H] | 3.24
FPELGYSYGGGSASEQHSEGSRSS [S15E] | 3.65
FPELGYSYEGGSASSQHSEGSRSS [G9E] | 4.39
FPELGYSYGSGSASSQHSEGSRSS [G10S] | 3.45
FPELGYSYGVGSASSQHSEGSRSS [G10V] | 2.83

Variant | protein stability index
FPELGYSYGGGSASSQHSEGSRSY [S24Y] | 2.58
FPELGYSYGGGSASSQHSEGSRSV [S24V] | 2.34
FPELGYSYGGGSASSQHSEGSRSA [S24A] | 3.5
FPELGYSYGGYSASSQHSEGSRSS [G11Y] | 2.38
FPELGYSYGGASASSQHSEGSRSS [G11A] | 3.29
FPELGYSYGGISASSQHSEGSRSS [G11I] | 2.22
FPELGYSYGGSSASSQHSEGSRSS [G11S] | 3.03
FPELGYSYGGFSASSQHSEGSRSS [G11F] | 2.28
FPELGYSYGGDSASSQHSEGSRSS [G11D] | 3.35
TPELGYSYGGGSASSQHSEGSRSS [F1T] | 4.95
RPELGYSYGGGSASSQHSEGSRSS [F1R] | 4.86
EPELGYSYGGGSASSQHSEGSRSS [F1E] | 5.18
YPELGYSYGGGSASSQHSEGSRSS [F1Y] | 4
FPILGYSYGGGSASSQHSEGSRSS [E3I] | 3.59
FPALGYSYGGGSASSQHSEGSRSS [E3A] | 3.43
FPHLGYSYGGGSASSQHSEGSRSS [E3H] | 2.58
FPELGYSYGGGTASSQHSEGSRSS [S12T] | 3.29
FPELGYSYGGGNASSQHSEGSRSS [S12N] | 3.17
FPELGYSYGGGQASSQHSEGSRSS [S12Q] | 3.12
FPELGYSYGGGYASSQHSEGSRSS [S12Y] | 2.41
FPELGYSYGGGSAKSQHSEGSRSS [S14K] | 3.51
FPELGYSYGGGSAQSQHSEGSRSS [S14Q] | 2.99
FPELGYSYGGGSAWSQHSEGSRSS [S14W] | 2.47
FPELGYSYGGGSAFSQHSEGSRSS [S14F] | 2.16

Variant | protein stability index
FPELGYSTGGGSASSQHSEGSRSS [Y8T] | 3.7
FPELGYSQGGGSASSQHSEGSRSS [Y8Q] | 4.06
FPELGYSCGGGSASSQHSEGSRSS [Y8C] | 2.74
FPELGYSHGGGSASSQHSEGSRSS [Y8H] | 3.43
FPELGYSYGGGSASSQHSEGNRSS [S21N] | 2.91
FPELGYSYGGGSASSQHSEGGRSS [S21G] | 2.71
FPELGYSYGGGSASSQHSEGCRSS [S21C] | 3.3
FPELGYSYGGGSASSQHSEGLRSS [S21L] | 2.61
FPELGYSYGGGSASSQHSEGRRSS [S21R] | 2.62
FPELGYSYGGGSASSQHSEGKRSS [S21K] | 3.17
FPELGYSYGGGSASSQHSEGDRSS [S21D] | 2.87
FPELGYSYGGGSASSQHAEGSRSS [S18A] | 3.19
FPELGYSYGGGSASSQHNEGSRSS [S18N] | 2.89
FPELGYSYGGGSASSQHEEGSRSS [S18E] | 3.5
FPELGYSYGGGSASSQHQEGSRSS [S18Q] | 3.15
FDELGYSYGGGSASSQHSEGSRSS [P2D] | 5.09
FVELGYSYGGGSASSQHSEGSRSS [P2V] | 4.01
FFELGYSYGGGSASSQHSEGSRSS [P2F] | 3.37
FGELGYSYGGGSASSQHSEGSRSS [P2G] | 3.12
FLELGYSYGGGSASSQHSEGSRSS [P2L] | 2.86
FHELGYSYGGGSASSQHSEGSRSS [P2H] | 2.1
FNELGYSYGGGSASSQHSEGSRSS [P2N] | 4.26
FPELGYSYGGGSSSSQHSEGSRSS [A13S] | 2.9
FPELGYSYGGGSESSQHSEGSRSS [A13E] | 3.47

Variant | protein stability index
FPELGKSYGGGSASSQHSEGSRSS [Y6K] | 3.37
FPELGISYGGGSASSQHSEGSRSS [Y6I] | 3.77
FPELGGSYGGGSASSQHSEGSRSS [Y6G] | 3.81
FPELGYSYGGGSASSQHSCGSRSS [E19C] | 2.39
FPELGYSYGGGSASSQHSAGSRSS [E19A] | 2.99
FPELGYSYGGGSASSQHSIGSRSS [E19I] | 2.94
FPELGYSYGGGSASSQHSGGSRSS [E19G] | 2.87
FPELGYSYGGGSASSQHSHGSRSS [E19H] | 2.38
FPELGYSYGGGSASSQHSNGSRSS [E19N] | 2.59
FPELGYSYGGGSASSQPSEGSRSS [H17P] | 3.35
FPELGYSYGGGSASSQWSEGSRSS [H17W] | 2.77
FPELGYSYGGGSASSQDSEGSRSS [H17D] | 3.08
FPELGYSYGGGSASSQASEGSRSS [H17A] | 3.12
FPELGYSYGGGSASSQVSEGSRSS [H17V] | 3.22
FPELGYSYGGGSASSQTSEGSRSS [H17T] | 3.12
FPELGYSYGGGSASSQMSEGSRSS [H17M] | 2.62
FPELGYSYGGGSASSCHSEGSRSS [Q16C] | 2.81
FPELGYSYGGGSASSGHSEGSRSS [Q16G] | 2.88
FPELGYSYGGGSASSYHSEGSRSS [Q16Y] | 2.69
FPELGYSYGGGSASSLHSEGSRSS [Q16L] | 2.83
FPELGYSYGGGSASSNHSEGSRSS [Q16N] | 3.28
FPELGYSYGGGSASSTHSEGSRSS [Q16T] | 3.48
